B1: SEQ_ID_#95 (nucleic acid, listed as Homo sapiens)
DNA: TTTTTTTTTTTTTTTTGTAATAAGAAAAAATTTTAGTAAAAGAAAATTCTCACAAAGTTTTTAGTAAATGAGATTATGTTCATGAATGTGTTTGGTAAACTGTAACTCCACAGGGCAGCTCCAAGTCATGAGTGTGCAGTTGGGCTCAAACCGTACAGAAGTCATTTCCAGGATGTTATCCTTACTCTTCTAGGAGCCCACATCGCCCAGATGAGGAAGGCCACCGCTGCCGCCAACGCCGACTACCGTGAGCAGCTTCCTGCTCCCCTGTCGTCGCCTCTGCGGTCGGGGCACTTTCCCCAAAGCGCT
B2: SEQ_ID_#1069 (nucleic acid, listed as Homo sapiens)
DNA: GCCGCCTCCTCCTGGGCTGGGCCCGCGGTGTCTCGTCCCCTCGCGGAGCCGCTCCTGCCGCCGCCGCCGCCGCCTCCTCATTCATCCTCGTGCACCATAGGCGGCACAGGCACCAAGATGTCCAACCGAGTGGTCTGCCGAGAAGCCAGTCACGCCGGGAGCTGGTACACAGCCTCAGGACCGCAGCTGAATGCACAGCTAGAAGGTTGGCTTTCACAAGTACAGTCTACAAAAAGACCTGCTAGAGCCATTATTGCCCCCCATGCAGGATATACGTACTGTGGGTCTTGTGCTGCCCATGCTTATAAACAAGTGGATCCGTCTATTACCCGGAGAATTTTCATCCTTGGGCCTTCTCATCATGTGCCCCTCTCTCGATGTGCACTTTCCAGTGTGGATATATATAGGACACCTCTGTATGACCTTCGTATTGACCAAAAGATTTACGGAGAACTGTGGAAGACAGGAATGTTTGAACGCATGTCTCTGCAGACAGATGAAGATGAACACAGTATTGAAATGCATTTGCCTTATACAGCTAAAGCCATGGAAAGCCATAAGGATGAGTTTACCATTATTCCTGTACTGGTTGGAGCTCTGAGTGAGTCAAAAGAACAGGAATTCGGAAAACTCTTCAGTAAATATCTAGCGGATCCTAGTAATCTCTTTGTGGTTTCTTCTGATTTCTGCCATTGGGGTCAAAGGTTCCGTTACAGTTACTATGATGAATCCCAGGGGGAGATTTATAGATCCATTGAACATCTAGATAAAATGGGTATGAGTATTATAGAACAATTAGACCCTGTATCTTTTAGCAATTACTTGAAGAAATACCATAATACTATATGTGGAAGACATCCCATTGGGGTGTTATTAAATGCTATCACAGAGCTCCAGAAGAATGGAATGAATATGAGTTTTTCGTTTTTGAATTATGCCCAGTCGAGCCAGTGTAGAAACTGGCAAGACAGTTCAGTGAGTTATGCAGCTGGAGCACTCACGGTCCACTGAAGCTCTGAATCCTCAGGGATGCCACCTGCACATTCTCATACTCTGTCCGGGGTCCCAGCCTAGCCTTTACCACGATACTGGTCCTGGTTTGGGGGGATTCTGAAACCTCAAACTAATAGAACTTTCTTCTCTTTTTTTCTAGTAGGTGTAGTCCTTCCTTAATTTCAACTCATTAAAAAATGCTTTATAGTTTAGGGCAGTGGAAGGAAGGCTGGCATCAAAATATTTTGATCAAAAAAGATGACAATGTAAAGGCTCAGTTGTGGCAGACAGTTTTTT
B3: SEQ_ID_#1005 (nucleic acid, listed as Homo sapiens)
DNA: ATAGATTCTGCAGCATGGCAAACAGGTAATACTTAAAGCCAAATGGCGCTTCGGCTTATTTCAATACTATTTTTATGTAAAGATCAGTGTGAGAATATCAGCTCAATGGTTGAGGTTCTAGGATCAATTGCCTTGCAGTTTTTATACTAGCTTTTGATATCTTTTGCCTATTAAAACACTTTGTGAACTTTAGAATTAAGGAACTAAAAAATATTTACCATAAGTCCAAGTTATGACTTGAGGATCATATCTGATTAGAACTGTGGCAGAACTACTAGAAAAAGATTCTGCAAATTGGTTTCAGTGATTCTTGTTGATGTAATCAACAAGATTACATAATCAACAATAATAGATATTGAACCAAAATGATCCTTTTTTTAAGTTTAAGGTTATTTAGTTTCTCTTGCAAGGATATGATTTAGTCCTAATAGGGAATATGTGTATGTACTGGTGGGGAGCAGTGGGCTTGCTGCATGTATGTATGTTTTAAAATTAATAAATATTATCTTACTGGGCTCCATAGATGGTTTAAATTTAGATTTATTTAATTAAGAGGCTATAAATAATATATACACTACTGTATGGTATTTAACAAATAAGTTTTAAATCTGTTAATTCTTCTGGAAAACTTTGGATGTAGGGATGGCAAGCTAATTTTCTTGTATAGCTGGTGATATAAGCAGCATGGTCATAAAATAACATTTCTTATAAAGAC
B4: SEQ_ID_#1002 (nucleic acid, listed as Homo sapiens)
DNA: CCACCGCCTATCCCAAAACCTATAAGAACCAATGATAATCCCACTACCCTTTGATGACTCTCTTTTTGGACTCAGCCCGCCTGCACCCAGGTGAAATAAACAGCCTCGTTGCTCACACAAAGCCTGTTTGGTGGTCTCTTCACACGGACGCATGAGACATTTGGTGCCGAAGACCCGGGTCAGCGGGACTCCTTCGGGACAGCAGTCCCCTGTCCTCACCTTCACTCCCTGAAGAGATCCACCTACAACCTCAGGTCCGCAGACCAACCAGCCCAAGGAACATCTCACTGATTTTAAATTGGACTCTCTTCACACGGGCGAGTGTGACATTTGGTGCCGAAGACCCAGGACAGGAGGACTCCTTTGGGAGACCGGTCTCCTGTCCTCGCCCTCACTCCGTGAGGAGATCCACCTGCAACCTCAGGTCCTCAGACCAACCAGCCGAAGGAACATCTCACCAATTTCAAATGGGCTTAGCGGCTGAAGACTGATGCTGCCTGGTCGCCTCGGAAGCCCCCTGGACCATCATGGACGCCGAGCTTCGGGTAACTCTCACAGTGGAGGCCTGTTTGGTGACTTTCTTCGCACCGACGTGCGTGACACAATGTTTGCAGAATATGAAGGTGGCTGTCACGTGGTCTGGGCTTCCTGGAGGTTTGAGCTGGGAGCTGAAGCCCCGTAGGAGTTCTGTAAGTCAAAAGGGAAGAGAAGAGCATTCCACGTAGAGAAAAGAATCTGTGCTCCAGGCGCGGTGGCTCACGATTGTAATCTCAGCACTTGGTGTCAGGCCTCTGAGCCCAGGCTAAGCCATTGTATATCCCCCGTGACCTGCATGTATACATCCAGATGGCCTGAAGCAGCTGAAGAACCACAAGAGAAGTGAAAATAGCCAGTTCCTGCCTTAACTGATGTCATTCCACCATTGTGATTTGTTCCTGTCCCACCTTTACTGATCAATTAACTTTGTGACATTTCTTCTCCTGGACAATGAGTCTCATGATCTCCCTACCCAGCACCTTGTGACCCCTGCCCCTGCCCGCAAGAGATAACCATCTTTAACTGTAACTTTCCACTACCTACCTAAATCCTGTAAAAACTGACCCACCCCCTATCTCCCTTTGCTGACTCCTTTTTCGGACTCAGCCCGCCTGCACCCAGGTGATTAAAAAGCTTTATTGTTCACATG
B5: SERPINB1 (nucleic acid, listed as Homo sapiens)
DNA: GCTCGGAGCCCGGAGCGTGCCTCGGCGGCCTGTCGGTTTTCACCATGGAGCAGCTGAGCTCAGCAAACACCCGCTTCGCCTTGGACCTGTTCCTGGCGTTGAGTGAGAACAATCCGGCTGGAAACATCTTCATCTCTCCCTTCAGCATTTCATCTGCTATGGCCATGGTTTTTCTGGGGACCAGAGGTAACACGGCAGCACAGCTGTCCAAGACTTTCCATTTCAACACGGTTGAAGAGGTTCATTCAAGATTCCAGAGTCTGAATGCTGATATCAACAAACGTGGAGCGTCTTATATTCTGAAACTTGCTAATAGATTATATGGAGAGAAAACTTACAATTTCCTTCCTGAGTTCTTGGTTTCGACTCAGAAAACATATGGTGCTGACCTGGCCAGTGTGGATTTTCAGCATGCCTCTGAAGATGCAAGGAAGACCATAAACCAGTGGGTCAAAGGACAGACAGAAGGAAAAATTCCGGAACTGTTGGCTTCGGGCATGGTTGATAACATGACCAAACTTGTGCTAGTAAATGCCATCTATTTCAAGGGAAACTGGAAGGATAAATTCATGAAAGAAGCCACGACGAATGCACCATTCAGATTGAATAAGAAAGACAGAAAAACTGTGAAAATGATGTATCAGAAGAAAAAATTTGCATATGGCTACATCGAGGACCTTAAGTGCCGTGTGCTGGAACTGCCTTACCAAGGCGAGGAGCTCAGCATGGTCATCCTGCTGCCGGATGACATTGAGGACGAGTCCACGGGCCTGAAGAAGATTGAGGAACAGTTGACTTTGGAAAAGTTGCATGAGTGGACTAAACCTGAGAATCTCGATTTCATTGAAGTTAATGTCAGCTTGCCCAGGTTCAAACTGGAAGAGAGTTACACTCTCAACTCCGACCTCGCCCGCCTAGGTGTGCAGGATCTCTTTAACAGTAGCAAGGCTGATCTGTCTGGCATGTCAGGAGCCAGAGATATTTTTATATCAAAAATTGTCCACAAGTCATTTGTGGAAGTGAATGAAGAGGGAACAGAGGCGGCAGCTGCCACAGCAGGCATCGCAACTTTCTGCATGTTGATGCCCGAAGAAAATTTCACTGCCGACCATCCATTCCTTTTCTTTATTCGGCATAATTCCTCAGGTAGCATCCTATTCTTGGGGAGATTTTCTTCCCCTTAGAAGAAAGAGACTGTAGCAATACAAAAATCAAGCTTAGTGCTTTATTACCTGAGTTTTTAATAGAGCCAATATGTCTTATATCTTTACCAATAAAACCACTGTCCAGAAAAAAAAAAAAAAAAAAAA
B6: SEQ_ID_#978 (nucleic acid, listed as Homo sapiens)
DNA: GTATATGTTAAAAAAAGAGAAGGTCGCATTATGGACAGACTTCGTGAATGGGAATTTGCTTAGAATTGTGAGTAGTTCTGAATTAGAAAAGTATGTGAAGGAAAGGCAGCTGTAAACGTATTGTGCCCTGGAGAGTTGTACACATGTTGAAATGTAATCTGGGCTTACCTGATCCATTTGGAGTGGATGTCACTGCCGAGTCTGTTCTCACATGGAACCATGTGTGTGGGGTTGCCAGCCTCACAGATACAATCAATCCTATTCCCCTCTGACATAAGGAACTCCTCTGGAGTGGCAGAGTCTTATCACAGAAGGCAGCCACCATTTCACCAAAACAAAAGTTCACGGCATTCAATTCCTTTTTCCTTTAGCTATTTATATATGCAGTACTCTCAGTCATATGCAGAAATACTTTTTTTTTTTAATTAATAGTTACAGGCTTGTTGGTCCAGTGGGATTTGGGTAGGGGGAGAAAGATACCTTCTAAAATGGATCAATAGAACCAAAATAATACAGCATGTTCTATAACCACAAGGAAATCAAATGATCCTGTCATGATTCCAGTTAGTCATAACTATGTTAGCAGTGCTAAATGCATTTTAGAAATGGTGACTTCTGTGGTTTTCCTAGCATTTGTCTCTAACAAATGGTGAAATAATTACTCATGGCCCTCTCTGCCATTGTCTTTCATTTTTTCACAGTGAAATTAGACCCCTTTACTTCACCATTCTGCCACTGCAAATTAAGTATAAAGAAAATAGCAAGAGTGTCCACACCAGTAGACAGTAAGCTTCTCTACCTGTAAGTGATGAAATCATAGCTAATGCACTTGCCATGGAGTTTTCAAGATGATTGGTGTCAGACAGTTTTCACTTTGTTTAAAAAGTGTTGGTGGCCTTTTGTGGTGGTGTTACAATCCTCTGGGGGCTTAGGAGGATGTTGATGCAACTTTTAGAAGCTTTTAATTTCAAAAACAACTCAAAAATCTGAAGGACAGTCATAGCTGCCACTCAGCCCCAGTTAGTCAAACCCCAGTGACCTTTGCCCCTGGTTGCCAAGGGCTTTGCAACATCAAGCAGGGAAATAAGGATCTGTCTGTTTAGTGGATACCGTGTATCCTTTAATAGACCAGGTAACAGTTCGTGTTAGTTTAGACTATTGTTTTGTACTGTACTTTCTTGGGTGGCAGAGGAAAGAAAAGTAAAACATT

tested on: EE transcriptome; assay: Genome-wide microarray transcript profiling of esophageal biopsies, EE patients vs normal individuals (EE transcriptome); conditions: transcript level in esophageal biopsies of EE patients (n=76) compared to normal individuals (n=13); Affymetrix Human Genome U133 plus 2; p<0.01
In short: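 Distal esophageal biopsies from EE patients (n=76; >24 eosinophils/hpf, basal hyperplasia) and normal controls (n=13; 0 eosinophils/hpf) profiled on Affymetrix Human Genome U133 plus 2 chips. Expression by absolute call and average difference, global scaling; transcriptome genes defined as p<0.01 (Welch t-test) and ≥1.5-fold change.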

For B1, the “Fold Change” value was 3.633.

same assay, conditions: transcript level in esophageal biopsies of EE patients compared to normal individuals (NL); Affymetrix Human Genome U133 plus 2; p<0.01; >1 up-regulated, <1 down-regulated

Point of comparison: B3, “Fold Change” value 0.61. Against it:
- B2 — lower, 0.587
- B4 — higher, 0.612
- B5 — higher, 0.62
- B6 — higher, 0.62

Source: patent US10155985B2, “Evaluation of eosinophilic esophagitis” (CHILDREN'S HOSPITAL MEDICAL CENTER, priority 2004, dated 2018)
